Assay results: the supplement of paper PMC10567573
± gives the standard deviation.

Test: protein stability index of a GFP-peptide fusion (GPS, HEK-293T) (PSI 1-6); higher = more stable
[1] = treatment: DMSO, c terminus: a fixed tail appended
[2] = treatment: MLN4924 1 uM, 8 h, c terminus: a fixed tail appended
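Note: 24-mer peptide tiles fused after GFP, lentivirally expressed, FACS-sorted into six equal bins by GFP/DsRed ratio, decoded by Illumina sequencing, PSI is the read-weighted mean bin number.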

| Sequence | protein stability index [1] | protein stability index [2] | protein stability index (treatment: DMSO, c terminus: native) | protein stability index (treatment: MLN4924 1 uM, 8 h, c terminus: native) |
| --- | --- | --- | --- | --- |
| LIFSPCSDCEEEEEEEEEEGSGHS [WEE1] | 4.88 ± 0.19 | 5.03 ± 0.13 |  |  |
| PLTGFLTTVPDGPTQLRALNLTEG [TNXB] | 3.81 ± 0.26 | 3.55 ± 0.22 |  |  |
| WLAVDGLVSPSNNSKEDAFSGTDW [ATF4] | 3.76 ± 0.19 | 3.76 ± 0.27 |  |  |
| SSQDRMFETMAIEIEQLLARLTGV [GOSR1] | 2.52 ± 0.24 | 2.62 ± 0.44 |  |  |
| AEGNNQAPGEEEEEEEEATNTHPP [CHGA] | 5.35 ± 0.43 | 5.61 ± 0.34 |  |  |
| LFQLSCSSTQLNELLLFAVGFIMA [OR3A1] | 2.71 ± 0.45 | 2.98 ± 0.87 |  |  |
| ILIIQGVLSDINLKKGESECQYYI [NET1] | 2.73 ± 0.54 | 2.67 ± 1 |  |  |
| SAALFYLTNSEYRSEQSVKLRRQV [ZER1] | 2.85 ± 0.57 | 2.83 ± 0.069 |  |  |
| AEPDMDDPAYIAVLVLIFNAAKTC [INTS4] | 2.37 ± 0.47 | 2.12 ± 0.29 |  |  |
| KTTQEAEKLLERQGQAKTPDSMFL [CDK11A] | 4.68 ± 0.28 | 4.73 ± 0.2 |  |  |
| GRLIQLSRDGATGHVLLTDSEFSM [PPFIA4] | 2.24 ± 0.22 | 2.17 ± 0.46 |  |  |
| LHYAAMHGRARIARLMLESEYRSD [ASB7] | 2.73 ± 0.19 | 2.77 ± 0.28 |  |  |
| GTIFIRNVLLFKKQNPGKFCLLSC [RETREG3] | 2.7 ± 0.6 | 2.89 ± 0.34 |  |  |
| RTTRGLDPLFGMCEKFLQEVDFFQ [INTS4] | 2.05 ± 0.37 | 2.23 ± 0.26 |  |  |
| LLVGAAVFDALESDHEMREEEKLK [KCNK9] | 4.26 ± 0.34 | 4.29 ± 0.24 |  |  |
| ANFIEKVRFLEQQNAALRGELSQA [PRPH] | 3.39 ± 0.12 | 3.36 ± 0.39 |  |  |
| VEVISDTLSKPSPMPVSQECFETL [CHGA] | 3.85 ± 0.092 | 3.87 ± 0.25 |  |  |
| AQAGGSKKAEQKKKEKIIEDKTFG [ZC3H15] | 5.12 ± 0.17 | 5.23 ± 0.16 |  |  |
| HIDPEIQDGSPTTSRRPSGTGTGP [PDLIM4] | 5.26 ± 0.26 | 5.42 ± 0.26 |  |  |
| EAALNSKDAALATALGDKKSLEGD [LMNB1] | 5.52 ± 0.25 | 5.5 ± 0.078 |  |  |
| RLRKHQHVGDFARDLAARWKKLVL [ELOA2] | 2.23 ± 0.61 | 2.54 ± 0.9 |  |  |
| IVVIPGKVEEVSLPEQVDIIISEP [CARM1] | 2.47 ± 0.45 | 2.16 ± 0.29 |  |  |

| Sequence | protein stability index [1] | protein stability index [2] | protein stability index (treatment: DMSO, c terminus: native) | protein stability index (treatment: MLN4924 1 uM, 8 h, c terminus: native) |
| --- | --- | --- | --- | --- |
| REAMLEMLLQHQICKEVQAEQEPT [SPAG8] | 4.1 ± 0.25 | 4.15 ± 0.39 |  |  |
| KLKPLGEAEREFILNLKKKECKDR [NLN] | 4.17 ± 0.23 | 4.45 ± 0.2 |  |  |
| DGKLLWEQELYNNFVYNSPRGYFH [WASL] | 2.07 ± 0.24 | 2.27 ± 0.41 |  |  |
| LKAFNMFVRLFVDENLDRMVPISK [NOL4L] | 2.67 ± 0.61 | 2.41 ± 0.27 |  |  |
| VCDLQSLLGYTPEELHAMLDVKPD [ETS1] | 4.04 ± 0.21 | 4.07 ± 0.12 |  |  |
| TTLSFYGNSISISALQSLLQHLIG [PRAME] | 2.82 ± 0.46 | 2.82 ± 0.48 |  |  |
| MREYKLVVLGSGGVGKSALTVQFV [RAP1B] | 2.51 ± 0.53 | 2.8 ± 0.75 |  |  |
| KKAWDDLKKYLEPRCPRMVLSLKE [FBXO3] | 2.78 ± 0.26 | 2.86 ± 0.17 |  |  |
| GPPHARISQHGDPLLSNTFTETNN [EMID1] | 4.31 ± 0.13 | 4.748 ± 0.028 |  |  |
| VRKWRVKSALGAMGQWQLEVGDPA [DPCD] | 2.46 ± 0.26 | 2.57 ± 0.21 |  |  |
| KIGYHLLYYLRASKAAAGKMNLYE [INTS3] | 2.3 ± 0.49 | 2.25 ± 0.23 |  |  |
| ILIVDWDVHHGNGTQHMFEDDPSV [HDAC6] | 2.18 ± 0.23 | 2.39 ± 0.21 |  |  |
| THLPKADIFALALTVVCAAGAEPL [WEE1] | 3.6 ± 0.35 | 3.31 ± 0.26 |  |  |
| FLCDLYPLLKLACTNTYVTGLSMI [OR4A15] | 2.82 ± 0.23 | 3.25 ± 0.45 |  |  |
| LVEAVLSGEVLNGAAVVRPPGHHA [HDAC6] | 2.27 ± 0.2 | 2.27 ± 0.34 |  |  |
| AERLGVTFFEVSPLCNFNIIESFT [RAB40A] | 2.32 ± 0.65 | 2.5 ± 0.46 |  |  |
| KKSRSPASAEAPGDSGERSEGEAM [ZNF511] | 5.53 ± 0.39 | 5.57 ± 0.1 |  |  |
| LQLYFWKDREFHELQGDFSVPDVP [VPS39] | 2.02 ± 0.46 | 2.17 ± 0.22 |  |  |
| LTQLHRLSLESSPDAPDHTSETSH [PLEKHN1] | 5.23 ± 0.32 | 5.22 ± 0.21 |  |  |
| RIHSGKKPYACDECAKAFSRSAIL [ZNF396] | 2.31 ± 0.4 | 2.38 ± 0.33 |  |  |
| DAILYYYQSGGRIRRPVNVPIDIF [KCNA3] | 2.2 ± 0.61 | 2.58 ± 0.76 |  |  |
| PTPVGAVQQDPALSSNREAHQHRD [CSNK1G3] | 5.37 ± 0.21 | 5.41 ± 0.19 |  |  |

| Sequence | protein stability index [1] | protein stability index [2] | protein stability index (treatment: DMSO, c terminus: native) | protein stability index (treatment: MLN4924 1 uM, 8 h, c terminus: native) |
| --- | --- | --- | --- | --- |
| EFHQRRSEIIQITTGSKELDKLLQ [RAD51] | 2.93 ± 0.2 | 3.03 ± 0.51 |  |  |
| EMMRFIYTGRAPNLDKMADNLLAA [SPOPL] | 2.42 ± 0.29 | 2.01 ± 0.19 |  |  |
| NRQSSDKQNGRVAKVKGHRSQKHK [C18orf25] | 4.67 ± 0.18 | 4.55 ± 0.17 |  |  |
| QEQLLECNKLCGRGQSRQLSPET [SLC2A12] |  |  | 4.21 ± 0.43 | 4.61 ± 0.46 |
| AQTLAYGDMNHEWIGNEWLPSLGL [PPFIA4] | 2.54 ± 0.43 | 2.24 ± 0.029 |  |  |
| GARPLSTRVPRAAIVFTDGRAQDD [MATN2] |  | 4.48 ± 0.68 |  |  |
| ILSACSPYFRAMFTGELAESRQTE [KLHL20] | 2.06 ± 0.086 | 2.48 ± 0.33 |  |  |
| ASAEAPGDSGERSEGEAMEICSEP [ZNF511] | 5.54 ± 0.21 | 5.47 ± 0.29 |  |  |
| SPHRKRSDDSDEDEPCAISGKWTF [DLC1] | 4.47 ± 0.22 | 4.51 ± 0.13 |  |  |
| ILQDQEHIFAHRIYLATSSSKFYD [RHOBTB1] | 2.15 ± 0.35 | 2.4 ± 0.16 |  |  |
| QQHAEGSPEPGTPAAPTPESFTVH [DNAAF3] | 5.17 ± 0.24 | 5.27 ± 0.43 |  |  |
| AVVSCTPVHLVDKLPLPIALRSHL [RAB40B] | 2.65 ± 0.12 | 1.98 ± 0.41 |  |  |
| VQLIWVVSQLYPESIVPIPSSNEE [INTS4] | 3.07 ± 0.45 | 2.81 ± 1.1 |  |  |
| KGNLLRHIKLHSGEKPFKCHLCNY [IKZF1] | 2.37 ± 0.38 | 2.4 ± 0.23 |  |  |
| IREDRDRARLDSMVLLIMKLDQLD [DLC1] | 2.35 ± 0.45 | 2.18 ± 0.32 |  |  |
| LFTIPLLYRQHQAQIDQYVGLVTN [RTN2] | 2.81 ± 0.57 | 2.95 ± 0.48 |  |  |
| YDPFRDAVTLRCGHNFCRGCVSRC [TRIM35] | 2.69 ± 0.46 | 2.74 ± 0.4 |  |  |
| SGEKPYKCSDCGKAFLTKTMLIVH [ZNF649] | 3.52 ± 0.24 | 3.68 ± 0.35 |  |  |
| AIPIKSWFSDPSDTALLNLLPMLD [CTDNEP1] | 2.33 ± 0.16 | 2.47 ± 0.3 |  |  |
| SKAFLLQTVDGKHQDLKYISPETM [CDC25B] | 3.22 ± 0.098 | 3.37 ± 0.29 |  |  |
| FLKAVLRQERVSLYPFQIHSIALS [CDS1] | 2.01 ± 0.23 | 2.42 ± 0.91 |  |  |
